Assay results from patent publication US10954275.

Tests used:
[1] = target: AlexaFluor 647-conjugated human IgG (Jackson Immuno Research) (human); assay: flow cytometry on yeast-displayed PrG, ~200 nM IgG, pH 8.2
[2] = target: AlexaFluor 647-conjugated human IgG (Jackson Immuno Research) (human); assay: flow cytometry, titration of AlexaFluor 647 human IgG on yeast-displayed PrG, pH 5.6
[3] = target: AlexaFluor 647-conjugated human IgG (Jackson Immuno Research) (human); assay: flow cytometry on yeast-displayed PrG, ~200 nM IgG, pH 5.6
[4] = target: AlexaFluor 647-conjugated human IgG (Jackson Immuno Research) (human); assay: flow cytometry, titration of AlexaFluor 647 human IgG on yeast-displayed PrG, pH 8.2
[5] = target: AlexaFluor 647-conjugated human IgG (Jackson Immuno Research) (human); assay: flow cytometry, IgG titration on yeast-displayed PrG, pH 8.2 against pH 5.6
[6] = target: AlexaFluor 647-conjugated human IgG (Jackson Immuno Research) (human); assay: flow cytometry on yeast-displayed PrG with labelled human IgG at pH 5.6 and pH 8.2 (FIG. 6)
[7] = target: AlexaFluor 647-conjugated human IgG (Jackson Immuno Research) (human); assay: flow cytometry on yeast-displayed PrG with labelled human IgG (FIG. 6), against WT PrG

Binder	Percent IgG bound at IgG concentration of ~200 nM [1] [%]	Kd [2] [nM]	Percent IgG bound at IgG concentration of ~200 nM [3] [%]	Kd [4] [nM]	fold change in binding constant, pH 5.6 to pH 8.2 [5] [fold]	fold increase of the pH dependent switch [6] [fold]	fold increase of IgG binding affinity [7] [fold]
Protein G EHHE C2 domain (PrG-EHHE; A24E, K28H, V29H, N35E), displayed on the yeast cell surface (designed binder, not shown: large carriers) TTYKLVINGKTLKGETTTEAVDAETAEHHFKQYAEDNGVDGEWTYDDATKTFTVTE	10	27	80	1170	40	> 2	–
Protein G EHHD C2 domain (PrG-EHHD; A24E, K28H, V29H, N35D), displayed on the yeast cell surface (designed binder, not shown: large carriers) TTYKLVINGKTLKGETTTEAVDAETAEHHFKQYADDNGVDGEWTYDDATKTFTVTE	7	96	65	1780	20	–	–
Protein G ERH C2 domain (PrG-ERH; A24E, K28R, V29H), displayed on the yeast cell surface (designed binder, not shown: large carriers) TTYKLVINGKTLKGETTTEAVDAETAERHFKQYANDNGVDGEWTYDDATKTFTVTE	–	–	–	–	–	–	> 4
Protein G EHH C2 domain (PrG-EHH; A24E, K28H, V29H), displayed on the yeast cell surface (designed binder, not shown: large carriers) TTYKLVINGKTLKGETTTEAVDAETAEHHFKQYANDNGVDGEWTYDDATKTFTVTE	–	–	–	–	–	–	> 4
